# Source: patent US20150017120A1 (MIT, published 2015)
# T1: soluble murine CD25 (murine, UniProt P01590 22-236, limits assumed)
# T1 construct: also called soluble CD25; mouse CD25
# T1 sequence (looked up): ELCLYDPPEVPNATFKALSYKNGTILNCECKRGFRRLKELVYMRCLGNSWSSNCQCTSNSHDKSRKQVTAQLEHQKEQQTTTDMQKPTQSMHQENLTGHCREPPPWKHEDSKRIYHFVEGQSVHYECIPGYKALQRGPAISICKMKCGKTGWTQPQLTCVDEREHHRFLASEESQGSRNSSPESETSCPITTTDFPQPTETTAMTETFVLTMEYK
# Molecular target: T1, soluble murine CD25
# Test: method not stated (legend of the schematic of Fc/IL-2)
row,Kd,Binder
1,~50 nM,"D265AFc/IL-2 (Fc fusion, also called D265A Fc/wt mIL-2) chain 1: EPRVPITQNPCPPLKECPPCAAPDLLGGPSVFIFPPKIKDVLMISLSPMVTCVVVAVSEDDPDVQISWFVNNVEVHTAQTQTHREDYNSTLRVVSALPIQHQDWMSGKEFKCKVNNRALPSPIEKTISKPRGPVRAPQVYVLPPPAEEMTKKEFSLTCMITGFLPAEIAVDWTSNGRTEQNYKNTATVLDSDGSYFMYSKLRVQKSTWERGSLFACSVVHEGLHNHLTTKTISRSLGKGGGSAPTSSSTSSSTAEAQQQQQQQQQQQQHLEQLLMDLQELLSRMENYRNLKLPRMLTFKFYLPKQATELKDLQCLEDELGPLRHVLDLTQSKSFQLEDAENFISNIRVTVVKLKGSDNTFECQFDDESATVVDFLRRWIAFCQSIISTSPQHHHHHH chain 2: EPRVPITQNPCPPLKECPPCAAPDLLGGPSVFIFPPKIKDVLMISLSPMVTCVVVAVSEDDPDVQISWFVNNVEVHTAQTQTHREDYNSTLRVVSALPIQHQDWMSGKEFKCKVNNRALPSPIEKTISKPRGPVRAPQVYVLPPPAEEMTKKEFSLTCMITGFLPAEIAVDWTSNGRTEQNYKNTATVLDSDGSYFMYSKLRVQKSTWERGSLFACSVVHEGLHNHLTTKTISRSLGKGGGSDYKDDDDK"

# Molecular target: T1, soluble murine CD25
# Test: yeast surface display, labeling with soluble CD25, flow cytometry
# Excerpt: While all H82 and Q121 mutants retained CD25 binding, no CD25 binding was detected for E76 mutants (FIG. 4).
row,Binder,binding result
1,"E76A IL-2 (ligand, also called E76 mutants) APTSSSTSSSTAEAQQQQQQQQQQQQHLEQLLMDLQELLSRMENYRNLKLPRMLTFKFYLPKQATELKDLQCLEDALGPLRHVLDLTQSKSFQLEDAENFISNIRVTVVKLKGSDNTFECQFDDESATVVDFLRRWIAFCQSIISTSPQ",no binding (tested: 50 nM soluble CD25)
2,"E76F mouse IL-2 (ligand, also called E76 mutants) APTSSSTSSSTAEAQQQQQQQQQQQQHLEQLLMDLQELLSRMENYRNLKLPRMLTFKFYLPKQATELKDLQCLEDFLGPLRHVLDLTQSKSFQLEDAENFISNIRVTVVKLKGSDNTFECQFDDESATVVDFLRRWIAFCQSIISTSPQ",no binding (tested: 5 or 50 nM soluble CD25)
3,"E76R mouse IL-2 (ligand, also called E76 mutants) APTSSSTSSSTAEAQQQQQQQQQQQQHLEQLLMDLQELLSRMENYRNLKLPRMLTFKFYLPKQATELKDLQCLEDRLGPLRHVLDLTQSKSFQLEDAENFISNIRVTVVKLKGSDNTFECQFDDESATVVDFLRRWIAFCQSIISTSPQ",no binding (tested: 5 or 50 nM soluble CD25)
4,"E76G IL-2 (ligand, also called E76 mutants) APTSSSTSSSTAEAQQQQQQQQQQQQHLEQLLMDLQELLSRMENYRNLKLPRMLTFKFYLPKQATELKDLQCLEDGLGPLRHVLDLTQSKSFQLEDAENFISNIRVTVVKLKGSDNTFECQFDDESATVVDFLRRWIAFCQSIISTSPQ",no binding (tested: 50 nM soluble CD25)

# Molecular target: T1, soluble murine CD25
# Test: yeast surface display, titration with soluble murine CD25
row,binding result,Binder
1,binds,"mIL-2 QQ 6.2-13 (ligand, Reversion mutant) APTSSSTSSSTAEAQQQQQQQQQQQQHLEQLLMDLQELLSRMEDHRNLRLPRMLTFKFYLPEQATELKDLQCLEDELEPLRQVLDLTQSKSFQLEDAENFISNIRVTVVKLKGSDNTFECQFDDEPATVVDFLRRWIAFCQSIISTSPQ"
2,binds,"mIL-2 QQ 6.2-10 (ligand, Reversion mutant) APTSSSTSSSTAEAQQQQQQQQQQQQHLEQLLMDLQELLSRMEDHRNLRLPRMLTFKFYLPEQATELEDLQCLEDELEPLRQVLDLTQSKSFQLEDAENFISNIRVTVVKLKGSDNTFECQFDDEPATVVDFLRRWIAFCQSIISTSPQ"
3,binds,mIL-2 QQ 6.2-4 (ligand) APTSSSTSSSTAEAQQQQQQQQQQQQHLEQLLMDLQELLSRMEDSRNLRLPRMLTFKFYLPKQATELEDLQCLEDELEPLRQVLDLTQSKSFQLEDAENFISNIRVTVVKLKGSDNTFECQFDDEPATVVGFLRRWIAFCQSIISTSPQ
4,binds,"mIL-2 QQ 6.2-11 (ligand, Reversion mutant) APTSSSTSSSTAEAQQQQQQQQQHLEQLLMDLQELLSRMEDSRNLRLPRMLTFKFYLPEQATELKDLQCLEDELEPLRQVLDLTQSKSFQLEDAENFISNIRVTVVKLKGSDNTFECQFDDEPATVVDFLRRWIAFCQSIISTSPQ"
5,binds,"mIL-2 QQ 6.2-8 (ligand, Reversion mutant) APTSSSTSSSTAEAQQQQQQQQHLEQLLMDLQELLSRMEDHRNLRLPRMLTFKFYLPKQATELEDLQCLEDELEPLRQVLDLTQSKSFQLEDAENFISNIRVTVVKLKGSDNTFECQFDDEPATVVDFLRRWIAFCQSIISTSPR"
